Measured values as given in article PMC4027168.

Key:
Experiment in all cases: EMSA
Settings in all cases: 50 mM Tris-HCl pH 8.0, 5 mM EDTA, 1 mM DTT, 100 mg/ml BSA (so in the source), 6% glycerol, on ice 20 min, 4% native PAGE in 6.7 mM Tris-HCl pH 8.0, 3.3 mM Na …, scale: fold of wild-type affinity
[1] = tested on: RecG[A693Q] (Escherichia coli K-12 MG1655?)
[2] = tested on: RecG[ΔC1] (Escherichia coli K-12 MG1655?)
[3] = tested on: RecG[Y690A] (Escherichia coli K-12 MG1655?)
[4] = no Mg2+, 5 mM EDTA, RecG 0-100 nM, DNA 0.2 nM

Measured: binding signal

J12 Holliday junction
1: [1]; [4] | [2]; [4] | [3]; [4]

replication fork lacking a lagging strand
1: [1] | [2] | [3]
